Values quoted from earlier work in paper PMC10580911.

Target: Tk-subtilisin (Thermococcus kodakarensis) (UniProt P58502)

Tk-subtilisin propeptide propeptide (from UniProt P58502)
Kd: 1.4 nM
